Test results reported in US20120225437A1 (UNIVERSITY OF LEICESTER, published 2012).

Columns and labels:
[1] = target: T1, Rat MBL-A (mannan-binding lectin A) (rat, UniProt P19999 18-238); assay: SPR, MBL immobilised, CUB2 injected, 5 mM Ca2+
T1 construct: mature; It was immobilised on the SPR chip by amine coupling
Method: (§1) Data were fitted to a model in which there is a single Ca²⁺ site.
(§2) MBL (0.025 mg/ml) was immobilized onto the surface of a GLM sensor chip (˜10,000 response units) at pH 4.5, using amine-coupling chemistry. […] For inhibition assays, MBL was immobilized on to a CM-5 sensor chip (14,000 response units) and binding was measured on a Biacore® 2000 (GE Healthcare) in 20 mM Tris/HCl pH 7.4, containing 140 mM NaCl, 5 mM Ca²⁺, and 0.005% SP-20. […] Changes in response units caused by differences in sample composition were subtracted from all data. To account for changes in ionic strength of the buffer due to the inhibitor, binding was measured in the presence of equivalent concentrations of NaCl.

[2] = target: T1, Rat MBL-A (mannan-binding lectin A); assay: SPR, MBL immobilised, CUB2 at 20, 10, 5 and 2.5 µM, 1:1 model
Method: as §1, §2

Kd [1]: 27 µM
koff [2]: 0.0035 s⁻¹
kon [2]: 131 M⁻¹ s⁻¹
B1: CUB2 domain of rat MASP-1/-3 (residues E165-A277 of the mature polypeptide, isoform 1) (other)
chain: CSGNLFTQRTGTITSPDYPNPYPKSSECSYTIDLEEGFMVTLQFEDIFDIEDHPEVPCPYDYIKIKAGSKVWGPFCGEKSPEPISTQSHSIQILFRSDNSGENRGWRLSYRA
notes: also called MASP-1 CUB2; rat MASP-1 CUB2
